Test results from PMC8092703, “Structural Basis for the Shared Neutralization Mechanism of Three Classes of Human Papillomavirus Type 58 Antibodies with Disparate Modes of Binding” (Journal of Virology, 2021).

B1: nAb A4B4 (anti-HPV58 neutralizing monoclonal antibody, full length) (antibody, V domains shown)
VH: QVTLKESGPGILQPSQTLSLTCSFSGFSLSTSGMGVGWIRQPSGKGLEWLAHIWWNDDKNYHPALKSRLTISKDTSSNRVFLNIASVDTADTATYYCARIHYVTDALDYWGQGTSVTVS
VL: DIVMSQSPSSLAVSVGEKVTMSCKSSQSLLYSSIQKNYLAWYQQKPGQSPKLLIYWASIRESGVPDRFTGSGSGTDFTLTISSVKAEDLAVYYCQRYYGYPWTFGGGTKLEIKR
notes: variable domain of the heavy chain of nAb A4B4; variable domain of the light chain of nAb A4B4; Mouse IgG2a; source: mouse hybridoma, ascites of BALB/c mice, purified (protein A-agarose)
B2: Fab fragment of nAb A4B4 (Fab, V domains shown)
VH: B1 VH
VL: B1 VL
notes: variable domain of the heavy chain of nAb A4B4; variable domain of the light chain of nAb A4B4; Fab of a mouse IgG2a; the Fab model in the structure is a homology model; also called Fab A4B4; A4B4 Fab; source: papain digest of the purified nAb, separated from Fc on a TSKgel DEAE-5PW column
B3: nAb 2H3 (anti-HPV58 neutralizing monoclonal antibody, full length) (antibody, V domains shown)
VH: QVQLLQSGAELVRPGSSVKISCKASGYVFTSYWMHWVKQRPGQGLEWIGQIYPGDGGTHYNGNFRDKATLTADKSSSTAYMHLSSLTSEDSAVYFCARKIYDGYGFSYWGQGTLVTVS
VL: DIQMTQSPASLSVSVGETVTITCRASENIYSNLIWYQQKQGKSPQLLVYAATNLADGVPSRFSGSGSGTQYSLKINSLQSEDFGSYYCQHFWGTPLTFGAGTKLEIKR
notes: variable domain of the heavy chain of nAb 2H3; variable domain of the light chain of nAb 2H3; Mouse IgG1; source: mouse hybridoma, ascites of BALB/c mice, purified (protein A-agarose)
B4: Fab fragment of nAb 2H3 (Fab, V domains shown)
VH: B3 VH
VL: B3 VL
notes: variable domain of the heavy chain of nAb 2H3; variable domain of the light chain of nAb 2H3; Fab of a mouse IgG1; the Fab model in the structure is a homology model; also called Fab 2H3; 2H3 Fab; source: papain digest of the purified nAb, separated from Fc on a TSKgel DEAE-5PW column
B5: nAb 5G9 (anti-HPV58 neutralizing monoclonal antibody, full length) (antibody, V domains shown)
VH: EVMLVESGGGLVKPGGSLKLSCVASGFTFSDYAMSWGRQTPEKRLEWVATISSGGVSTYHPDSVKGRFTMSRDNAKNTLYLQMSSLRSEDTAKYYCARGGGRYAMDYWGQGTSVTVS
VL: DVQITQSPSYLAASPGETITINCRASKSINKYLAWYQEKPGTTNKLLIYSGSTLQSGIPSRFSGRGSGTDFTLTISSLEPEDLAVYYCQQYNEYPWTFGGGTKLEIKR
notes: variable domain of the heavy chain of nAb 5G9; variable domain of the light chain of nAb 5G9; Mouse IgG2a; source: mouse hybridoma, ascites of BALB/c mice, purified (protein A-agarose)
B6: Fab fragment of nAb 5G9 (Fab, V domains shown)
VH: B5 VH
VL: B5 VL
notes: variable domain of the heavy chain of nAb 5G9; variable domain of the light chain of nAb 5G9; Fab of a mouse IgG2a; the Fab model in the structure is a homology model; also called Fab 5G9; 5G9 Fab; source: papain digest of the purified nAb, separated from Fc on a TSKgel DEAE-5PW column

What was measured:
[1] = biological target: T1, HPV58 pseudovirus (PsV58) capsid (human papillomavirus type 58, UniProt P26535 1-524; P26538 1-472); experiment: cell-based or functional assay
T1 sequence 1: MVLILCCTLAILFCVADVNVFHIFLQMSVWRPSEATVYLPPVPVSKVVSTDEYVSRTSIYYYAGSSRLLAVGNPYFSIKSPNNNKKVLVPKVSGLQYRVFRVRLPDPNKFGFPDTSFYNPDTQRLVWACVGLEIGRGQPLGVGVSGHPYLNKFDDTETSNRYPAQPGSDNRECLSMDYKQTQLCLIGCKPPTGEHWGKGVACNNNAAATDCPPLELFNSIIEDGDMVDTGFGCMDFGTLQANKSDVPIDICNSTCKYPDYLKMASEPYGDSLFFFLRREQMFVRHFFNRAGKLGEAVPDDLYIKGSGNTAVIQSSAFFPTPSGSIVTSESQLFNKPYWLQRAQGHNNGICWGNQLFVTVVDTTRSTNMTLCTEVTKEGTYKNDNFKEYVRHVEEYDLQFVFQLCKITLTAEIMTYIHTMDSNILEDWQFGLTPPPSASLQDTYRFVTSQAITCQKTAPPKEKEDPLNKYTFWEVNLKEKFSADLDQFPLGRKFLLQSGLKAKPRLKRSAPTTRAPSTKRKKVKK
T1 sequence 2: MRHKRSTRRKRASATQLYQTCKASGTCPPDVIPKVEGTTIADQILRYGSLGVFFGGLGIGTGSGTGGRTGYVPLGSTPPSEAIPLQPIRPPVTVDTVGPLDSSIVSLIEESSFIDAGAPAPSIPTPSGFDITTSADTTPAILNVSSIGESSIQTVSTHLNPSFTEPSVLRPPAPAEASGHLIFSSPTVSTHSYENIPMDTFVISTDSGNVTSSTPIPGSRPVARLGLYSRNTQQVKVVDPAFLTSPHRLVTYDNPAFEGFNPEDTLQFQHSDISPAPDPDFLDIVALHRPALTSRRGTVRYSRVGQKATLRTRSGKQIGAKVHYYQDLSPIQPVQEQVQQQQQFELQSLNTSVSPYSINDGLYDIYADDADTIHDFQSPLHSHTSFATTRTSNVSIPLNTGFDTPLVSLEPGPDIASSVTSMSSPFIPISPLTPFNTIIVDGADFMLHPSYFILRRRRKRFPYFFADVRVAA

[2] = biological target: HPV58 virus-like particles (VLPs) self-assembled from recombinant HPV58 L1 (human papillomavirus type 58, UniProt P26535 1-524, The printed source is GenBank AFS33402.1, which may differ from P26535 at isolate-variant positions. The start is taken by convention at MSVWRPSE (Met27 of P26535), and paper numbering + 26 = P26535 n); experiment: ELISA; inhibition ELISA; HPV58 VLPs coated; diluted monoclonal antibody 1 h at 37°C, then rabbit standard antiserum against HPV58 VLPs 30 min at 37°C; HRP goat anti-rabbit IgG; inhibition rate; conditions: both partners purified
[3] = biological target: T2, HPV58 pseudovirus (PsV58) capsid (human papillomavirus type 58, UniProt P26535 1-524; P26538 1-472, T=7d capsid of 72 L1 pentamers. L2 copy number is unknown and no L2 density was seen. Expressed from p58sheLL, whose L1 and L2 may carry isolate-variant residues.); experiment: cell-based or functional assay
[4] = biological target: T2, HPV58 pseudovirus (PsV58) capsid; experiment: cryo-EM structure; purified PsV58 mixed with Fab in 1.5-fold excess (pseudovirus-Fab molar ratio 1:540), 37°C for 2 h; icosahedral and 2-fold subparticle reconstruction; conditions: both partners purified

| Binder | neutralization titer, pseudovirus-based neutralization assay in 293FT cells (first well 1 μg/ml nAb, 2-fold dilutions) [1] | inhibition rate of the nAb against rabbit antiserum to HPV58 VLPs [2] [%] | IC50 of neutralization of PsV58 by the Fab form [3] [ng/mL] | stoichiometry N [4] |
| --- | --- | --- | --- | --- |
| B1 | 12800 | 71 |  |  |
| B2 |  |  | 1280 | 4 Fabs per asymmetric unit |
| B3 | 51200 | 87 |  |  |
| B4 |  |  |  | 4 Fabs per asymmetric unit |
| B5 | 410000 | 59 |  |  |
| B6 |  |  |  | 1 Fab per capsomer |
